From the supplement of paper PMC12042874
± gives the uncertainty stated by the source.

Assay: amyloid nucleation score (Sup35N fusion, yeast selection) (log enrichment); library NNK1; higher = more nucleation; inactive = no reads after selection
Outline: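 On medium lacking adenine and uracil, psi-negative yeast expressing peptides of 20 random codons fused to Sup35N were grown 7 days at 30°C after a 24-hour induction with 100 μM copper sulfate. Illumina sequencing of input and output plasmid inserts gave the reads, and sequences under 100 input reads were excluded. The nucleation score is the DiMSum log enrichment of output over input reads, centred on the mode score of non-aggregating sequences.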

Row | Substance | amyloid nucleation score
1 | CYGFLVSMMSYLSLVELVFL | -0.04 ± 0.26
2 | MRLSCLRRWGSTSVSTG | -0.305 ± 0.36
3 | WLHGFKWRED | -0.541 ± 0.68
4 | CYDGDRFIEEA | 0.364 ± 0.66
5 | LFGTS | 0.501 ± 0.51
6 | SDVLGMSQAIGASTSVAEVV | inactive
7 | FVGRSVCAKMTPHRLTAIGP | -0.082 ± 0.67
8 | CSNLM | -0.675 ± 0.66
9 | RNTVGYVSNTGVLYILTS | 6.24 ± 0.067
10 | ECYGIR | 0.893 ± 0.26
11 | FTLIIRDLMFSRHEFRVHAG | -0.213 ± 0.39
12 | ALWNYAVNSTLWWGLGYGWR | 0.052 ± 0.41
13 | LVMRRKYLVNSNTLCSFGLH | inactive
14 | RVNTCMSRGRA | -0.367 ± 0.61
15 | EVLNIYLHNRLNVLFTELAS | -0.884 ± 1.4
16 | LLSQVTCGMQTVRRNGGIIR | -0.195 ± 0.65
17 | FSQLYMGMYPGHNLLKYHSG | -0.275 ± 0.22
18 | LVHPQVSVGS | 0.632 ± 0.74
19 | KLSSKWTRACRHNSC | -0.134 ± 1.3
20 | RGISYLV | -0.212 ± 0.68
21 | ISLCCTSTYLTVSYGTDRS | 6.487 ± 0.061
22 | CFFYDCGWTCPLKNIGSYTF | 0.07 ± 0.51

Row | Substance | amyloid nucleation score
23 | VLYLMAAPIVMVYV | 4.31 ± 0.061
24 | VFRGSWCRTNNVIPGLFNKA | 0.488 ± 0.4
25 | CCTNM | 0.332 ± 0.22
26 | SFFMYLNIRWIWSMCVNAIE | 0.09 ± 0.58
27 | VNMSVIWGRVFASEKVYRAK | 0.871 ± 0.56
28 | MIRQFSVSICSTRSVCVHPR | -0.135 ± 0.59
29 | YRCTLASNRLRFLWITSNVR | -0.085 ± 0.58
30 | FGPGCCIFL | 7.481 ± 0.054
31 | VYMRNKEQVNIGHDTVNLSL | 0.58 ± 0.43
32 | CFTICFVGYCSRVKGWLMQR | -0.617 ± 0.71
33 | SQTSVPGGSDEAGAGVKQGF | 0.134 ± 0.56
34 | YRKFHPGKRL | 0.193 ± 0.58
35 | CDSKLHISSSC | 0.313 ± 0.84
36 | GVYARQIFYNS | 0.021 ± 0.24
37 | LLDMNANECYLPIWWQSEVT | 0.092 ± 0.96
38 | RINQVTGVVQLVFRCRNSRL | 7.643 ± 0.047
39 | GVNLRSNRESSVCDNWRGLR | 0.423 ± 0.42
40 | ADTLFPLDHPVINFSPFIVL | 5.789 ± 0.05
41 | IIMVYSRSLLMLKLSLVVPC | inactive
42 | VCYLGECRGHAIMEYWWSWR | 2.4 ± 0.24
43 | PSGTGWRLDGSV | 0.09 ± 0.38
44 | RGAQLIRRSFKTVAGLGFIM | -0.767 ± 1.4

Row | Substance | amyloid nucleation score
45 | WKCWGLCHLQR | -1 ± 0.93
46 | ESLRDRARWGNCMQILICSL | -0.055 ± 0.55
47 | WPGMPRS | 1.17 ± 0.35
48 | VNFFLFRQCKGSFAWNHTVA | 6.336 ± 0.058
49 | SSFQIRVSVLRRHCISGLIY | 1.01 ± 0.79
50 | NMEWYRTFCSQCYIGRRGTS | 0.476 ± 0.9
51 | FFFKAFDLATTSLGRYNMCN | -0.66 ± 0.52
52 | LMSLEHELRVKS | inactive
53 | LIVMVKV | 0.111 ± 0.33
54 | RQVRMGFPGFWFMVIDYCRS | 0.499 ± 0.39
55 | SDASLLTKSVFADGRDQVTR | 0.433 ± 0.28
56 | SCLSRASIYSRFHSNLYVKM | inactive
57 | SLLTWFREYVDYTLYQWPGY | -0.131 ± 0.76
58 | VSILSRI | -0.842 ± 0.61
59 | GWQGL | -0.202 ± 0.53
60 | LKFNAP | -0.14 ± 1.4
61 | LSVGKKDS | -0.292 ± 0.23
62 | EGMYC | 0.058 ± 0.34
63 | PFSVWSPPMMDPVHNIFWVR | -0.203 ± 0.49
64 | TKCIINEIVDDG | -1.35 ± 2.4
65 | GFALECESEVWSCYYTIRII | 0.444 ± 0.43
66 | CVKLGYYWSF | 0.598 ± 0.16

Row | Substance | amyloid nucleation score
67 | WRFLLWSFHSEAYLIVYS | -0.773 ± 0.49
68 | YCYYYVNTCVV | 2.07 ± 0.53
69 | LLFSKRVLVSWGFDRGGSEE | 0.336 ± 0.57
70 | SHSLHLESSASSLTR | -1 ± 0.51
71 | RCSFIS | -0.682 ± 0.75
72 | IAILNLDNLGGYGCNCFHYF | 4.23 ± 0.13
73 | GILVCLNYLGLFVVYHGFVW | 1.33 ± 0.56
74 | DAGNVLARLDGFNAG | -0.121 ± 0.49
75 | SKDCNKWVRPRHGLYRFGGF | 0.071 ± 0.34
76 | IARFHTDSYHYRY | -0.08 ± 1.1
77 | VHFDRCDLWPGMM | 0.136 ± 0.76
78 | YVWDAHIINVYLS | 6.51 ± 0.081
79 | KNPLVIKKRF | 0.204 ± 0.59
80 | AGGVKSCTKRFN | -0.232 ± 1.5
81 | LQKRANNRRC | -0.372 ± 0.5
82 | SLFQYWDVRDVESTFSVCNC | 6.339 ± 0.047
83 | FYYVRLDARMVDSSSFV | -0.542 ± 0.28
84 | GKIYWLLLQTDKDRRFLTMR | -0.744 ± 0.46
85 | IQSRDGVSYKQDVWTLGCVL | 0.658 ± 0.55
86 | SRLLMKRIYYCVYPKGTTKK | inactive
87 | MYAFASSKYEHIS | 0.53 ± 0.32
